In the nanobody polyreactivity screen of Harvey et al. (2022):

Assay: yeast display, Sf9 membrane polyspecificity reagent, FACS + sequencing; frameworks hold sequencing errors
Method in brief: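 Nanobodies came from a synthetic yeast display library in Saccharomyces cerevisiae BJ5465, induced with galactose for 36–48 hours and stained for 1 hour at 4 °C with 10% biotinylated, detergent-solubilized Sf9 membrane reagent. Cells were enriched on streptavidin microbeads and then FACS-sorted, with low and high (top ~1%) gates set on anti-HA fluorescence for expression and streptavidin fluorescence for reagent binding. Each polyreactivity label reflects the gate a clone came from. Genes were amplified by colony PCR, sequenced by MiSeq 2 × 250 and filtered by CDR length.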

Sequence	polyreactivity (PSR sort gate)
QVQLVESGGGLVQAGGSLRLSCAASGSIFARNAMGSYRQAPGKERELVAAITVRGRTNYADSVKGRFTISRDNAKNTVYLQMNSLKPDDTAVYYCAASLWDDDSRLMYYWGQGTQVTVSS	high polyreactivity
QVQLVESGGGLVQAGGSLRLSCAASGSIFARYAMGWYRQAPGKERELDAAISGRGGSTYYADSVKGRFTISRDNAKNTVYLQMNSLKPEDTAVYYCNAVGHTSIRRALDILDYWGQGTQVTVSS	high polyreactivity
QVQLVESGGGLVQAGGSLRLSCAASGSIFARYAMGWYRQAPGKERELVAAISSSGSRTYYADSVKGRFTISRDNAKNTVYLQMNSLKPEDTAVYYCATRYGSASGREYEYWGQGTQVTVSS	high polyreactivity
QVQLVESGGGLVQAGGSLRLSCAASGSIFARYVMGWYRQAPGKERELVAAISRGGRTKYADSVKGRFTISRDNAKNTVYLQMNSLKPEDTAVYYCAASGSQPDDYWGQGTQVTVSS	high polyreactivity
QVQLVESGGGLVQAGGSLRLSCAASGSIFASNAMGWYRQAPGKERELVAAITDSGSTNYADSVKGRFTISRDNAKNTVYLQMNSLKREDTAVYYCDWSYYVWRRYRVARYDSWGQGTQVTVSS	low polyreactivity
QVQLVESGGGLVQAGGSLRLSCAASGSIFASNAMGWYRQAPGKERGLVAAITYNGGSTYYADSVKGRFTISRDNAKNTVYLQMNSLKPEDTAVYYCAALGTRRPHIPRGDYWGQGTQVTVSS	low polyreactivity
QVQLVESGGGLVQAGGSLRLSCAASGSIFASYAMGWYRQAPGKERELVAVITRSGGSTYYADSVKGRFTISRDNAKNTVYLQMNSLKPEDTAVYYCAAQYGRTYYSRREYWGQGTQVTVSS	high polyreactivity
QVQLVESGGGLVQAGGSLRLSCAASGSIFASYDMGWYRQAPGKERELVAAISYRGGGTYYADSVKGRVTISRDNAKNTVYLQMNSLKPEDTAVYYCNADTYSNTYRAYDYWGQGTQVTVSS	low polyreactivity
QVQLVESGGGLVQAGGSLRLSCAASGSIFASYVMGWYRQAPGKERELVAAITSRGTSTYYADSVKGRFTISRDNAKNTVYLHMNSLNPEDTAVYYCAARLYGSAPQHEYWGQGTQVTVSS	low polyreactivity
QVQLVESGGGLVQAGGSLRLSCAASGSIFAVNAMGWYRQAPGKERELVAAIDWSDGITYYADSVKGRFTISRDNAKNTVYLQMNSLKPEDTAVYYCAADATAYGWYVEQFSFYDNDYWGQGTEVTVSS	high polyreactivity
QVQLVESGGGLVQAGGSLRLSCAASGSIFAVNAMGWYRQAPGKERELVAAISWNGGSTYYADSVKGRFTISRDNAKNTVYLQMNSLKPEDTAVYYCATVRYKYYWSYYRYGYWGQGTQVTVSS	high polyreactivity
QVQLVESGGGLVQAGGSLRLSCAASGSIFAVNTMGWYIQAPGKERELVAAISQRGSSTYYADSVKGRFTISRDNAKNTVYLQMNSLKPEDTAVYYCAKRFIYGRYNYWGQGTQVTVSS	high polyreactivity
QVQLVESGGGLVQAGGSLRLSCAASGSIFAVYAMGWSRQAPGKERELVAAITTSGGSTYYADSVKGRFTISRDNAKNTVYLQMNSLKPEDTAVYYCAAYRGTLLTAYDYWGQGTQVTVSS	low polyreactivity
QVQLVESGGGLVQAGGSLRLSCAASGSIFAVYAMGWYRQAPGKEREFVARISWGGGRTYYADSVKGRCTISRDNAKNPVYLQMNSLKPEDTAVYYCAATFRARPRENYWGQGTQVTVSS	high polyreactivity
QVQLVESGGGLVQAGGSLRLSCAASGSIFAVYVMGWYRQAPGKERDFVAAITYSGTSTNYADSVKGRFTISRDNAKNTVYLQMNSLKPEDTAVFYCAADVRSSNGHYTLYDYWGQGTQVTVSS	high polyreactivity
QVQLVESGGGLVQAGGSLRLSCAASGSIFAWYVMGWYRQAPGKERELVAGIDTSGGSTFYADSVKGRFTISRDNAKNTVYLQMNSLKPEDTAVYYCAADTWFRGPWEFDYWGQGTQVTVSS	low polyreactivity

Sequence	polyreactivity (PSR sort gate)
QVQLVESGGGLVQAGGSLRLSCAASGSIFAYAMGWYRQAPGKERELVAGISSSGGRTYYADSVKGRFTISRDNAKNTVYLQMISLKPEDTAVYYCAARYPNVYQSETYFYWGQGTQVNVSS	high polyreactivity
QVQLVESGGGLVQAGGSLRLSCAASGSIFAYNAMGWYIQSPGTERELVAAISSSGGSTTYADSVKGRFTISRDNAKYTVYLQMNSLKPEDTAVYYCNAAWRRSRYYYWGQGTQVTVSS	high polyreactivity
QVQLVESGGGLVQAGGSLRLSCAASGSIFAYNAMGWYRQAPGKEREFVAVITRSDDSTYADSVKGRFTISRDNAKNSVYLQMNSLKPEDTAVYYCAAQPFVIDGGYRGDYWGQGTQVTVSS	low polyreactivity
QVQLVESGGGLVQAGGSLRLSCAASGSIFAYYAMGGYRQAPGKERELVAAITSGDSTYYADSVKGRFTISRDNAKNTVYLQMNSLKPEDTAVYYCAADHIWFYFYLYDYWGQGTQVTVSS	low polyreactivity
QVQLVESGGGLVQAGGSLRLSCAASGSIFAYYAMGWYRQAPGKEMELVAAITRGGTTYYADSVKGRFTISRDNAKNTVYLQMNSLKPEDTAVYYCAVYYYSGTAGYRYGYWGQATQVTVSS	high polyreactivity
QVQLVESGGGLVQAGGSLRLSCAASGSIFAYYAMGWYRQAPGKEREFVARITYSTDGTYYADSVKGRFTISRDNAKNTVYLQMNSLKPEDTAVYYCAVDTWWGFKRYKFDYWGQGTQVTVSS	low polyreactivity
QVQLVESGGGLVQAGGSLRLSCAASGSIFAYYAMGWYRQAPGKERELVAAISRRGGSTYYADSVKGRFTISRDNAKNTGYLQMNSLQPEDTAVYYCAADIGPRYDSWGLGTQVTVSS	high polyreactivity
QVQLVESGGGLVQAGGSLRLSCAASGSIFAYYAMGWYRQAPGKERELVADITSSGGITYYADSVKGRFTISRDNAKNTVYLQMISLKPEDTAVYYCNADSWAIGGGSYPFDYWGQGTQVTVSS	low polyreactivity
QVQLVESGGGLVQAGGSLRLSCAASGSIFAYYAMGWYRQAPGKERELVARIRRRSSSTFYADSVKGRFTISRDNAKYTVYLQMNSLKPEDTAVYYCAVRGPGTSTYWYHEYEYWGQGTQVTVSS	high polyreactivity
QVQLVESGGGLVQAGGSLRLSCAASGSIFCDKAMGWYRQAPGKERELVAAISIVGSTSYADSVKGRFTISRDNANNTVYLQMNSLKPEDTAVYYCAAENVRSDTGFDYWGQGTQVTVSS	low polyreactivity
QVQLVESGGGLVQAGGSLRLSCAASGSIFDANAIGWYRQAPGKERELVAAIDSGDITNYADSVKGRFTISRDNAKNTVYLQMNSLKPEDTAVYYCAAEWHYIYAYDYWGQGTQVTVSS	low polyreactivity
QVQLVESGGGLVQAGGSLRLSCAASGSIFDAYAMGWYRPATGKERELVAAITYSGGSTYYADSVKGRFTISRDNAKNTVYLQMNSLKPEDTAVYYCNTDSRVRTWFRAFTYDSWGQGTQVTVSS	low polyreactivity
QVQLVESGGGLVQAGGSLRLSCAASGSIFDAYAMGWYRQAPGKERELVAAISLSDTSTYYADSVKGRFTISRDNAKNTVYLQMNSLKPEDTAVYYCAAEFYIAYIEYDYWGQGTQVTVSS	high polyreactivity
QVQLVESGGGLVQAGGSLRLSCAASGSIFDDNAMGWYRPAPGKERELVATINYGGGRTSYADSVKGRSTISRDNAKNTVYLQMNSLKPEDTAVYYCAADPRQKEDYWGQGTQVTVSS	low polyreactivity
QVQLVESGGGLVQAGGSLRLSCAASGSIFDDNAMGWYRQAPGKERELVAAITSTDSTNYADSVKGRFTISRDNAKNPVYLQMNSLKPEDTAVYYCNAESLGWYRLYTVDYWGQGTQVTVSS	low polyreactivity
QVQLVESGGGLVQAGGSLRLSCAASGSIFDDYAMGWYRPAPGKEREVVAAISSGGSTYYADSVKGRFTISRDNAKNTVYLQMNSLKPEDTAVYYCNALYPQVGFGYWGQGTQVTVSS	low polyreactivity
